3 molecules from patent US20160009806A1 (Seagen, published 2016) can be followed below.

The target of assay [1] is T1, human integrin αvβ6 on cells (human, UniProt P06756 31-1048; P18564 22-788).
T1 construct: whole, on cells; also called HEK293F:huβ6
The assay is described as follows: saturation binding of biotinylated antibody, flow cytometry on 293F:huβ6 cells (apparent Kd). The method, then: (§1) 0.25-0.5×10⁶ antigen expressing cells were aliquoted per well into a 96-well v-bottom plate. m15H3, h15H3 (HBLC) and h15H3 (HTLC) were directly labeled with equivalent levels of biotin and added to cells at concentrations ranging from 0.1 pM-150 nM. Cells were incubated on ice for 30 minutes, washed three times in FACS buffer (PBS, 2% fetal bovine serum, 1 mM MgCl₂, 1 mM CaCl₂, 0.02% NaN₃), incubated on ice for 45 minutes with PE conjugated streptavidin (0.5 ug/ml) in FACS buffer, washed three times and resuspended in FACS buffer. Binding was detected using a Becton Dickinson Biosciences FACSCalibur (San Jose, Calif.). The apparent Kd was calculated using GraphPad Software (LaJolla, Calif.).
(In general: In flow cytometry, cells or beads pass a laser one at a time.)

For assay [2], the target named is T2, cynomolgus integrin αvβ6 on 293F:cynoβ6 cells (human; cynomolgus, UniProt P06756 31-1048; A0A2K5TZ36 22-787).
T2 construct: whole, on cells; also called HEK293F:cynoβ6
The assay is described as follows: saturation binding of biotinylated antibody, flow cytometry on 293F:cynoβ6 cells (apparent Kd). The protocol:
as §1

Assay [3] has as its target T3, mouse integrin αvβ6 on FDC-P1:muβ6 cells (mouse, UniProt P43406 31-1044; Q9Z0T9 22-787).
T3 construct: whole, on cells; Heterodimer of endogenous mouse αv and recombinant mouse β6
The experiment in a line: saturation binding of biotinylated antibody, flow cytometry on FDC-P1:muβ6 cells (apparent Kd). The protocol:
as §1

Assay [4] addresses T1, human integrin αvβ6 on cells. The assay is described as follows: competition binding, flow cytometry on 293F cells expressing αvβ6; competitor 2 nM AlexaFluor-647 m15H3. The method, then: 1×10⁵ antigen expressing cells were aliquoted in each well of a 96-well v-bottom plate on ice. […] Cells were pelleted and washed 3 times with PBS. The cells were pelleted and resuspended in 125 uL of PBS/BSA. Fluorescence was analyzed by flow cytometery, using percent of saturated fluorescent signal to determine percent labeled murine 15H3 bound and to subsequently extrapolate the EC50 by fitting the data to a sigmoidal dose-response curve with variable slope.

Assay [5] concerns the target T4, rat integrin αvβ6 on NBT-II bladder carcinoma cells (rat, UniProt F1LZX9 31-1043; Q6AYF4 22-787).
T4 construct: whole, on cells; Endogenous αvβ6 of rat NBT-II cells; also called rat αvβ6; rat NBT-II
The assay is described as follows: saturation binding of biotinylated antibody, flow cytometry on rat NBT-II cells (apparent Kd). The method, then:
as §1
The KD for the murine αvβ6 monoclonal antibody 15H3 antibody and select humanized version thereof was determined for human, cyno, rat, and mouse. […] The genetically engineered cell lines express endogenous αv which pairs with the recombinant β6 chain to produce a heterodimeric receptor composed of endogenous αv and recombinant β6. The affinity for rat αvβ6 was determined using rat NBT-II bladder carcinoma cells, which expression endogenous αvβ6.

Assay [6] has as its target T5, integrin αvβ5 on the parental line 293F:vector (human, UniProt P06756 31-1048; P18084 24-799).
T5 construct: whole, on cells; Negative control cells; also called HEK293F:vector
The experiment in a line: FMAT and FACS binding on cells.

The next assay addresses T6, recombinant αvβ3 (human, UniProt P06756 31-992; P05106 27-718).
T6 construct: Bought from R&D Systems; species read from 'recombinant human αvβ6, αvβ3 and αvβ8'
The experiment in a line: ELISA, integrin coated at 1 ug/ml, biotinylated antibody. The method, then: (§2) 96-well Maxisorb plates (Nunc) were coated overnight at 4° C. with 1 ug/ml of recombinant human αvβ6, αvβ3 and αvβ8 diluted in PBS. Plates were washed in PBS with 0.05% Tween 20 (PBS-T). Wash buffer was removed and plates were blocked for 30 minutes at room temperature in TBS blocking buffer (TBS plus 1 mM MnCl₂, 0.05% Tween 20, 1% BSA). Plates were washed and then incubated for 1 hour with biotinylated antibody (m15H3 or h15H3) diluted in TBS blocking buffer at concentrations that ranged from 4.6 ng/m1-10 ug/ml. Plates were washed, incubated for 1 hour with 1 ug/ml of HRP-streptavidin, washed, and then incubated with TMB substrate for 10 minutes. The reaction was stopped with 1 M H₂SO₄. Absorbance at 450 nm was read using a Fusion HT plate reader (Perkin Elmer, Waltham, Mass.).
(§3) BALB/c mice were immunized three times with intraperitoneal injections of ˜5×10⁶ 3 T3:huβ6 transfectants. Three days prior to fusion, mice received a final injection of purified recombinant human αvβ6 that was given intravenously (6 ug) and intraperitoneally (30 ug). Lymphocytes harvested from spleen and lymph nodes were fused to P3X63Ag8.653 myeloma cells using polyethylene glycol. Fused cells were recovered overnight in hybridoma growth media (IMDM containing 4 mM glutamine, 10% Fetal Clone I, 10% Cloning Factor and Penicillin/Streptomycin). […] The plates were read in an FMAT 8200 (Applied Biosystems).
Background: ELISA stands for enzyme-linked immunosorbent assay.

Another assay deals with T7, recombinant αvβ8 (human, UniProt P06756 31-992; P26012 43-684).
T7 construct: Bought from R&D Systems; species read from 'recombinant human αvβ6, αvβ3 and αvβ8'
The assay is described as above. The protocol:
as §2, §3

T3 sequence (P43406 31-1044, chain 1 of 2): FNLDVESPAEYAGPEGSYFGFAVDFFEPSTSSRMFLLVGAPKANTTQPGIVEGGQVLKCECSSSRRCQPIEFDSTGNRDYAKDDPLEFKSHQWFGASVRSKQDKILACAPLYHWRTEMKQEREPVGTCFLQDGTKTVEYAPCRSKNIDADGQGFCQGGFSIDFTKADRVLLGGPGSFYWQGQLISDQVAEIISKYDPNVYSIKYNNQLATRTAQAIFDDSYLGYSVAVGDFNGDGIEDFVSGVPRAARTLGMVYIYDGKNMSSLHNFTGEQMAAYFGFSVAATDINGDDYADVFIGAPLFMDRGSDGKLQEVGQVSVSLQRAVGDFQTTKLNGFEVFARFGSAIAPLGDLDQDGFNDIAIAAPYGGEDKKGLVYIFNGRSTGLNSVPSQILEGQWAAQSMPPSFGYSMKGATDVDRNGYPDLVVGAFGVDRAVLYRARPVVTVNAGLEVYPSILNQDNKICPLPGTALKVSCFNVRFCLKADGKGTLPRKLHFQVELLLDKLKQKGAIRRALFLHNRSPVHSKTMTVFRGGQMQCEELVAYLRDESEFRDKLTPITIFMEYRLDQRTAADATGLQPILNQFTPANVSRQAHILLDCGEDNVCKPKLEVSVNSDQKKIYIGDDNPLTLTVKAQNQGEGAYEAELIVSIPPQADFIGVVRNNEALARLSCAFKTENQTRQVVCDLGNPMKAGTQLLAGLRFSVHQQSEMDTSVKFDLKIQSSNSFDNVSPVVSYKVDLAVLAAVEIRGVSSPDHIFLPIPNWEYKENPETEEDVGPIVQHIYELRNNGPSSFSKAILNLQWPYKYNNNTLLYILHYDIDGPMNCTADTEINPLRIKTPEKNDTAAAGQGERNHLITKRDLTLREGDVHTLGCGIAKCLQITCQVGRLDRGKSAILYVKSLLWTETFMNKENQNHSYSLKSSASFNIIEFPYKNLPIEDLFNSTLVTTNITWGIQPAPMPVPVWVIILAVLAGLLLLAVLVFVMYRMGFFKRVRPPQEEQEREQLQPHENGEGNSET
T3 sequence (Q9Z0T9 22-787, chain 2 of 2): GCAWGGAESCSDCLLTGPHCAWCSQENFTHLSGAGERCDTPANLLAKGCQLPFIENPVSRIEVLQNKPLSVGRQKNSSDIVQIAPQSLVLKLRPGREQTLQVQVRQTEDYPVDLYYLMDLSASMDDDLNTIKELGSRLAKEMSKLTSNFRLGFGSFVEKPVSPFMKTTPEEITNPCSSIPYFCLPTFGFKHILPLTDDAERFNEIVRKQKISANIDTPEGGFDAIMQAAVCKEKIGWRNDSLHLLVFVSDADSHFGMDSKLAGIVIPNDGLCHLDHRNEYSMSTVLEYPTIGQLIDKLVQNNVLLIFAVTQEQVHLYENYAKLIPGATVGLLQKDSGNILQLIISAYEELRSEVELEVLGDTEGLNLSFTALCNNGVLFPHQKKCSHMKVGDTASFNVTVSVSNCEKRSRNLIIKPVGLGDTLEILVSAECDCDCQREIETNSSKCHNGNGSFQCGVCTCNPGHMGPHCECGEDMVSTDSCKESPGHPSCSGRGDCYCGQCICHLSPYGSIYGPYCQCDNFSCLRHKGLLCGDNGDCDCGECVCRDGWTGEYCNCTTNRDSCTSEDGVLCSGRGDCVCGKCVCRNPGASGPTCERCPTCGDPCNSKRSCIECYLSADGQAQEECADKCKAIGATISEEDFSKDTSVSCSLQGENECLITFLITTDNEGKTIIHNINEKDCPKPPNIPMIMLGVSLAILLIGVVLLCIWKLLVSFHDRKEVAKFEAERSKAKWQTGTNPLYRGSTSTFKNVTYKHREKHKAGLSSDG
T1 sequence (P06756 31-1048, chain 1 of 2): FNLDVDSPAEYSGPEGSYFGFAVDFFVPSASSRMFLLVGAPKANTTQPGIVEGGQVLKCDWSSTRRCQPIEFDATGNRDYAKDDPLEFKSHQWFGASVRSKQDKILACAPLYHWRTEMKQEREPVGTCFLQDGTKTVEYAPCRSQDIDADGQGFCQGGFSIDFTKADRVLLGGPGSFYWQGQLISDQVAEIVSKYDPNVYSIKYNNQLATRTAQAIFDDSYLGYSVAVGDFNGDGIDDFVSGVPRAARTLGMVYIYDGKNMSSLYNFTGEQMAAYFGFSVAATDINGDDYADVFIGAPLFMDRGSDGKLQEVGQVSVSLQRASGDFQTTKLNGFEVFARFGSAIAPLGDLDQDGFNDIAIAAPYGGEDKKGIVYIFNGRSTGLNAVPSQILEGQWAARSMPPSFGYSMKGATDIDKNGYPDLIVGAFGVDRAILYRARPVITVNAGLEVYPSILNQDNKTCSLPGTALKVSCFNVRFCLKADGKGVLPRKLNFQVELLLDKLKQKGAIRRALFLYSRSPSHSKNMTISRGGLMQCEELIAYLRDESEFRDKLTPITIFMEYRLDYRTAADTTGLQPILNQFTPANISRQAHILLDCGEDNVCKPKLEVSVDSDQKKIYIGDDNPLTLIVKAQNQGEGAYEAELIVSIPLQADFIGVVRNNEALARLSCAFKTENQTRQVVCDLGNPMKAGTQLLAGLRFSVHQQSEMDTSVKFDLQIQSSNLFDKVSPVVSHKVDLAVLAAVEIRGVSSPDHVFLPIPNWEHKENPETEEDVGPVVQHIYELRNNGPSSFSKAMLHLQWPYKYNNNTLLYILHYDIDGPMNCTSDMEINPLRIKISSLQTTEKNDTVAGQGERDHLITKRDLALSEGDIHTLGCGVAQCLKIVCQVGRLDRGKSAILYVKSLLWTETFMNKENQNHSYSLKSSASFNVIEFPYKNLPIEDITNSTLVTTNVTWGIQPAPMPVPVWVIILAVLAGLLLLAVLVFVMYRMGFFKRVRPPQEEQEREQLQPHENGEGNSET
T1 sequence (P18564 22-788, chain 2 of 2): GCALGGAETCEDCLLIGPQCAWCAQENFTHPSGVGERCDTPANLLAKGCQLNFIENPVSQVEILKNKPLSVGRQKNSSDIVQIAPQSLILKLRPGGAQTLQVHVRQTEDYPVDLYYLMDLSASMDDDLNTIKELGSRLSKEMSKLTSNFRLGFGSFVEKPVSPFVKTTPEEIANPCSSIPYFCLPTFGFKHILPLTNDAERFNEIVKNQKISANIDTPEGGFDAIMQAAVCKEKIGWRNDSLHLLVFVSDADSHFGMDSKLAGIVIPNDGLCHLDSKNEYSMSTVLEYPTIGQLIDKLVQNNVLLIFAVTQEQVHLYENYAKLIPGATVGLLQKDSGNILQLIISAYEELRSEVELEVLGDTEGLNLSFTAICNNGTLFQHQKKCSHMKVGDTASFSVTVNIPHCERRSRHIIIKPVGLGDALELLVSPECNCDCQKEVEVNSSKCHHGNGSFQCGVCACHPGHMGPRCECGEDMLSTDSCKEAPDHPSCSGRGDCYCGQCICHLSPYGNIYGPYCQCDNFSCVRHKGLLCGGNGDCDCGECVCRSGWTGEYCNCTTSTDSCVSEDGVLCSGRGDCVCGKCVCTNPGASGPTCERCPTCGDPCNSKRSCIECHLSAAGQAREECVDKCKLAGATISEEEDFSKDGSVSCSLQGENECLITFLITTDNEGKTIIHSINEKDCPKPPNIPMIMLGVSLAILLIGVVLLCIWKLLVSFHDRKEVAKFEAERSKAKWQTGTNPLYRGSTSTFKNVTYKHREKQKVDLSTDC
T5 sequence (P06756 31-1048, chain 1 of 2): as the sequence (P06756 31-1048, chain 1 of 2) above
T5 sequence (P18084 24-799, chain 2 of 2): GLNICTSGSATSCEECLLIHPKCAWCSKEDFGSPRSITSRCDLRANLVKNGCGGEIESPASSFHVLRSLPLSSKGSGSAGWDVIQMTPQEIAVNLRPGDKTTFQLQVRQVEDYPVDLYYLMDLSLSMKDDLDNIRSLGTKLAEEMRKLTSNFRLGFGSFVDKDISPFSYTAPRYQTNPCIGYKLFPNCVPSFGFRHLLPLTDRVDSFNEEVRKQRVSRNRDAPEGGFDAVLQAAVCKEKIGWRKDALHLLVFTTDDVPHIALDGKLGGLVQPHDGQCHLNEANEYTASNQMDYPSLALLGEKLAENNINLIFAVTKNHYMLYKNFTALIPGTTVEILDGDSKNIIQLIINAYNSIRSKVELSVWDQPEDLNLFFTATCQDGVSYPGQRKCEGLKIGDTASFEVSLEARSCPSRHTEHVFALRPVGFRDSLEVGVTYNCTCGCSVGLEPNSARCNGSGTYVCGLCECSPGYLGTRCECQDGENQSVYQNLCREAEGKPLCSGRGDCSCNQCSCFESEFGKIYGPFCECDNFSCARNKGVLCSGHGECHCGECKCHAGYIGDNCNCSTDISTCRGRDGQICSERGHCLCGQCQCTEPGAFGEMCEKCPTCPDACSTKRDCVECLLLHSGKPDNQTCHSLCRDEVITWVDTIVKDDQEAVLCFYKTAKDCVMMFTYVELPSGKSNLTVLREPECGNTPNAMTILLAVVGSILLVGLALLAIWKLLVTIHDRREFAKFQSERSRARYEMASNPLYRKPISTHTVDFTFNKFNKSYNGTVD

B1: humanized 15H3 antibody HBLC (antibody, V domains shown)
VH: QVQLVQSGAEVKKPGASVKVSCKASGYSFSGYFMNWVRQAPGQGLEWMGLINPYNGDSFYNQKFKGRVTMTRDTSTSTVYMELSSLRSEDTAVYYCARGLRRDFDYWGQGTLVTVSS
VL: DVVMTQSPLSLPVTLGQPASISCKSSQSLLDSDGKTYLNWLFQRPGQSPRRLIYLVSELDSGVPDRFSGSGSGTDFTLKISRVEAEDVGVYYCWQGTHFPRTFGGGTKLEIKR
notes: Only variable regions are tied to the construct; also called h15H3 (HBLC); h15H3-1
In the case of B1, the Kd in assay [1] worked out at 1.4 nM; in assay [2] it was 1.6 nM; in assay [3], 0.6 nM. Also, the 50% effective concentration (EC50) (in general, the midpoint of the concentration-response curve) in assay [4] was determined as 8.14 nM.

B2: humanized 15H3 antibody HTLC (antibody, V domains shown)
VH: QVQLVQSGAEVKKPGASVKVSCKASGYSFSGYFMNWVRQAPGQGLEWMGLINPYNGDSFYNQKFKGRVTMTRQTSTSTVYMELSSLRSEDTAVYYCVRGLRRDFDYWGQGTLVTVSS
VL: DVVMTQSPLSLPVTLGQPASISCKSSQSLLDSDGKTYLNWLFQRPGQSPRRLIYLVSELDSGVPDRFSGSGSGTDFTLKISRVEAEDVGVYYCWQGTHFPRTFGGGTKLEIKR
notes: Only variable regions are tied to the construct; also called h15H3 (HTLC); h15H3-3
B2: the Kd was determined as 1.2 nM in assay [1], 0.4 nM in assay [5], 1.5 nM in assay [2] and 0.3 nM in assay [3]. The molecule also displayed a half-maximal effective concentration (EC50) in assay [4] of 3.7 nM.

B3: murine 15H3 monoclonal antibody (antibody, V domains shown)
VH: EVQLQQSGPELVKPGASVKISCKASGYSFSGYFMNWVKQSHGQSLEWIGLINPYNGDSFYNQKFKGKATLTVQKSSSTAHMELQSLTSEDSAVFYCVRGLRRDFDYWGQGTPLTVSS
VL: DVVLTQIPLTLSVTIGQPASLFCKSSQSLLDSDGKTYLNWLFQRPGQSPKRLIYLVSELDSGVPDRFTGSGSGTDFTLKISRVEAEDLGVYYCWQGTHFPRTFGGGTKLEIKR
notes: Murine hybridoma antibody; also called m15H3; mouse 15H3
As to B3, the binding result in assay [6] is “no binding”; with recombinant αvβ3 it was “no binding (tested: 4.6 ng/ml-10 ug/ml)”; with recombinant αvβ8, “no binding (tested: 4.6 ng/ml-10 ug/ml)”. Further, the Kd was determined as 0.8 nM in assay [1], 0.2 nM in assay [5], 1 nM in assay [2] and 0.2 nM in assay [3].
